Paper PMC7093453
Values belong to the substance of their own block, whether it stands above or below them.

Key:
[1] = target: RCC: Rba. sphaeroides reaction centre with SpyCatcherΔ attached directly to the N-terminus of PufL (Rhodobacter sphaeroides) (UniProt P0C0Y9)
[2] = target: wild-type (WT) reaction centre (RC) of Rhodobacter sphaeroides (Rhodobacter sphaeroides) (UniProt P0C0Y8)
[3] = target: RCC: Rba. sphaeroides reaction centre with SpyCatcherΔ attached directly to the N-terminus of PufL (Rhodobacter sphaeroides) (UniProt P0C0Y9); remark: listed apart in the source
[4] = target: RC4C: Rba. sphaeroides reaction centre with SpyCatcherΔ attached to the N-terminus of PufL via a four residue linker (Rhodobacter sphaeroides) (UniProt P0C0Y9)

E (P870): apparent energy transfer efficiency from the rate of RC P870 photobleaching (650 nm excitation), LHCII#RC chimera in solution [1]: 22.8% | EFL: apparent energy transfer efficiency from quenching of LHC emission, LHCII#RC chimera in solution [1]: 19.6% | E (P870): apparent energy transfer efficiency from the rate of RC P870 photobleaching (650 nm excitation), mixture in solution [2]: 1.2% | EFL: apparent energy transfer efficiency from quenching of LHC emission, mixture in solution [2]: 0.8%
Substance: LHCII-T: full SpyTag sequence added to the C-terminus of the full A. thaliana Lhcb1

Ea1: efficiency of energy transfer to the Lhca1-connected RC in the RC#LHCI#RC chimera, from E (P870) (Eq. 5) [3]: 13.9% | Ea1: efficiency of energy transfer to the Lhca1-connected RC in the RC#LHCI#RC chimera, from EFL (Eq. 5) [3]: 10.4% | E (P870): apparent energy transfer efficiency from the rate of RC P870 photobleaching (650 nm excitation), RC#LHCI#RC chimera in solution [1]: 29.1% | EFL: apparent energy transfer efficiency from quenching of LHC emission, RC#LHCI#RC chimera in solution [1]: 27.4% | E (P870): apparent energy transfer efficiency from the rate of RC P870 photobleaching (650 nm excitation), mixture in solution (molar ratio of RC to LHC two) [2]: 3.3% | EFL: apparent energy transfer efficiency from quenching of LHC emission, mixture in solution [2]: 9.3%
Substance: Td-LHCI-Td: A. thaliana LHCI heterodimer of SpyTagΔ-adapted Lhca1 (Td-L1) and SpyTagΔ-adapted Lhca4 (Td-L4) (complex)

Ea4: apparent energy transfer efficiency for the LHCI#RC chimera, from E (P870) [3]: 20.1% | E (P870): apparent energy transfer efficiency from the rate of RC P870 photobleaching (650 nm excitation), LHCI#RC chimera in solution [1]: 20.2% | EFL: apparent energy transfer efficiency from quenching of LHC emission, LHCI#RC chimera in solution [1]: 20.7% | E (P870): apparent energy transfer efficiency from the rate of RC P870 photobleaching (650 nm excitation), mixture in solution [2]: 1.3% | EFL: apparent energy transfer efficiency from quenching of LHC emission, mixture in solution [2]: 10.3%
Substance: LHCI-Td: A. thaliana LHCI heterodimer of unadapted Lhca1 (L1) and SpyTagΔ-adapted Lhca4 (Td-L4) (from UniProt Q01667 36-241) (complex)

E (P870): apparent energy transfer efficiency from the rate of RC P870 photobleaching (650 nm excitation), RC#LHCII chimera in solution [4]: 21% | EFL: apparent energy transfer efficiency from quenching of LHC emission, RC#LHCII chimera in solution [4]: 20.3%
Substance: Td-dLHCII: SpyTagΔ added to the N-terminus of the truncated A. thaliana Lhcb1
